Assay results reported in patent publication US20210054094A1 (Hoffmann-La Roche, published 2021).

Assays:
human GPRC5D [1] = target: T1, human GPRC5D (human, UniProt Q9NZD1 1-345); experiment: cell-based or functional assay
human GPRC5D [2] = target: T1, human GPRC5D; experiment: cell-based or functional assay; remark: listed apart in the source
[3] = target: T2, B-cell maturation antigen (BCMA) (UniProt Q02223 1-184, limits assumed); experiment: cell-based or functional assay
T2 sequence (looked up): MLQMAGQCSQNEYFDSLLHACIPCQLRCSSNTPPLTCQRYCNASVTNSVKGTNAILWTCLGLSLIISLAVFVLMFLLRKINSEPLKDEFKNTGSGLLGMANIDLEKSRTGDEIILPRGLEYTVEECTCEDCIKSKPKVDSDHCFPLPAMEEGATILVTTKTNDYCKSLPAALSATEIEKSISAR

human GPRC5A = target: T3, human GPRC5A (human, UniProt Q8NFJ5 1-357); experiment: cell ELISA on stably transfected CHO cells
T3 construct: whole, on cells; also called hu GPCR5A
Procedure: (§1) Stable transfected CHO clones expressing either human GPRC5D or cynomolgus GPRC5D or murin GPRC5D or human GPRC5A were used to analyze the binding of potential lead candidate antibodies as IgGs. In detail, 10⁴ cells (viability≥98%) were seeded into 384 well-microtiter plates (BD Poly D-Lysin, #356662, volume: 25 μl/well) using fresh culture medium. After overnight incubation at 37° C., 25 μl/well dilutions of antibodies were added (15×1:3 dilutions in 1×PBS, assay conc. starts at 30 μg/ml) to the cells for 2 hours at 4° C. After one washing step using 90 μl/well PBST (10×PBS, Roche, #11666789001+0.1% Tween 20), cells were subsequently fixed by the addition of 50 μl/well 0.05% glutharaldehyde (Sigma Cat. No: G5882 in 1×PBS) for 10 min at room temperature (RT). After three additional washing steps using 90 μl/well PBST, secondary antibodies were added for detection: for human antibodies goat anti-human Ig κ chain antibody HRP conjugate (Millipore #AP502P) diluted 1:2000 in blocking buffer (1×PBS (Roche #11666789001)+2% BSA (Bovine Serum Albumin Fraction V, fatty acid free, Roche, #10735086001)+0.05% Tween 20) was used (25 μl/well). […] After incubation for 1 h at RT and three additional washing steps using 90 μl/well PBST, 25 μl/well TMB substrate was added (Roche order no. 11835033001) for 10 min and color development to final ODs was determined by measurement at 370 nm/492 nm.
(§2) Cynomolgus crossreactivity was also detected for all other antibodies but at lower levels compared to 10B10 and 07A04 (FIG. 9). No significant binding to CHO cells expressing murine GPRC5D and no binding to CHO cells expressing the human version of GPRC5A was detected (FIG. 9).

murine GPRC5D = target: T4, murine GPRC5D (murine, UniProt Q9JIL6 1-344); experiment: cell ELISA on stably transfected CHO cells
T4 construct: whole, on cells; also called murin GPRC5D
T4 sequence (looked up): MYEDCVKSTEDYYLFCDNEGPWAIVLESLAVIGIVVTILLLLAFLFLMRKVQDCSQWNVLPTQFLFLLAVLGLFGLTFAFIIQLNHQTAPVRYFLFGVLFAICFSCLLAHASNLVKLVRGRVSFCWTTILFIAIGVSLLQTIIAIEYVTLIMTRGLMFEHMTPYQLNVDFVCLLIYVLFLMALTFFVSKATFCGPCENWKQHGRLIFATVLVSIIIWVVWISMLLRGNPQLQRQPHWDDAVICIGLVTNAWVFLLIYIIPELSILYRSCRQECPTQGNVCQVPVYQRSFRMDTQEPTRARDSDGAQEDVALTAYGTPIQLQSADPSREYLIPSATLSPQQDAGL
Procedure: as §1, §2

T1 sequence (Q9NZD1 whole entry): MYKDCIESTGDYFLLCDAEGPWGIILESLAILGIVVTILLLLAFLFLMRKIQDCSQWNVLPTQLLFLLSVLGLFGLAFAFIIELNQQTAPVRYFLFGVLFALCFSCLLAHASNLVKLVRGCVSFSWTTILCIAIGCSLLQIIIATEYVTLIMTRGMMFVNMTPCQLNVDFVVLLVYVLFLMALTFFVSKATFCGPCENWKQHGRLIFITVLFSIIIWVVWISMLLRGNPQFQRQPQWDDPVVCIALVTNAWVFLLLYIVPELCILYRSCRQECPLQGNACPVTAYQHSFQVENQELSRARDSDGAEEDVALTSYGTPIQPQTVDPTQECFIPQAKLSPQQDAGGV
T3 sequence (Q8NFJ5 whole entry): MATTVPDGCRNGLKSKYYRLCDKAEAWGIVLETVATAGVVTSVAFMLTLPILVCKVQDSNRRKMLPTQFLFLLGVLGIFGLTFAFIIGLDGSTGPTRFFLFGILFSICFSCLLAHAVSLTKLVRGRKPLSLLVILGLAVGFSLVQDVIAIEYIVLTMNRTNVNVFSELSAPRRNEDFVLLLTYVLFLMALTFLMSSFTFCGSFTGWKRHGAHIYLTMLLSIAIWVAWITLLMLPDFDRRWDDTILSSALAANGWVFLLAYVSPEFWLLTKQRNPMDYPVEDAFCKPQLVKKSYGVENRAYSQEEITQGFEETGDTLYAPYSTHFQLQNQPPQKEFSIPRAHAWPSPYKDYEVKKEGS

B1: 5E11-TCB (bispecific antibody, human IgG1, kappa, L234A L235A)
light 1: DIVLTQSPALAVSPGQRATISCRASQSVSISGINLMNWYQQKPGQQPKLLIYHASILASGIPTRFSGSGSGTDFTLTIDPVQADDIATYYCQQTRESPLTFGSGTNLEIKRTVAAPSVFIFPPSDRKLKSGTASVVCLLNNFYPREAKVQWKVDNALQSGNSQESVTEQDSKDSTYSLSSTLTLSKADYEKHKVYACEVTHQGLSSPVTKSFNRGEC
light 2: EVQLLESGGGLVQPGGSLRLSCAASGFTFSTYAMNWVRQAPGKGLEWVSRIRSKYNNYATYYADSVKGRFTISRDDSKNTLYLQMNSLRAEDTAVYYCVRHGNFGNSYVSWFAYWGQGTLVTVSSASVAAPSVFIFPPSDEQLKSGTASVVCLLNNFYPREAKVQWKVDNALQSGNSQESVTEQDSKDSTYSLSSTLTLSKADYEKHKVYACEVTHQGLSSPVTKSFNRGEC
heavy 1: ELQLEQSGGGLVQPGGSLTLSCAASGFTFSKYAMAWVRQAPTKGLEWVASISTGGVNTYYRDSVKARFTISRDNAKNTQYLQMDSLRSEDTATYYCATHTGDYFDYWGQGVMVTVSSASTKGPSVFPLAPSSKSTSGGTAALGCLVEDYFPEPVTVSWNSGALTSGVHTFPAVLQSSGLYSLSSVVTVPSSSLGTQTYICNVNHKPSNTKVDEKVEPKSCDKTHTCPPCPAPEAAGGPSVFLFPPKPKDTLMISRTPEVTCVVVDVSHEDPEVKFNWYVDGVEVHNAKTKPREEQYNSTYRVVSVLTVLHQDWLNGKEYKCKVSNKALGAPIEKTISKAKGQPREPQVCTLPPSRDELTKNQVSLSCAVKGFYPSDIAVEWESNGQPENNYKTTPPVLDSDGSFFLVSKLTVDKSRWQQGNVFSCSVMHEALHNHYTQKSLSLSPGK
heavy 2: not shown
Human GPRC5D [1]
  EC50 of in vitro killing, AMO-1 cells: 8 pM
  EC50 of in vitro killing, EJM cells: 11 pM
  EC50 of in vitro killing, L363 cells: 17 pM
  EC50 of in vitro killing, MOLP-2 cells: 18 pM
  EC50 of in vitro killing, NCI-H929 cells: 7 pM
  EC50 of in vitro killing, OPM-2 cells: 2 pM
  EC50 of in vitro killing, RPMI cells: 64 pM
Human GPRC5D [2]
  EC50 of T cell cytotoxicity (LDH release) on AMO-1 cells: 14 pM
  EC50 of T cell cytotoxicity (LDH release) on L363 cells: 12 pM
  EC50 of T cell cytotoxicity (LDH release) on NCI-H929 cells: 7 pM
  EC50 of T cell cytotoxicity (LDH release) on RPMI-8226 cells: 24 pM

B2: 5F11-TCB (bispecific antibody, human IgG1, kappa, L234A L235A)
light 1: DIVMTQAPLSVSVTPGESASISCRSSKSLLHSNGITYVYWYFQKPGKSPQVLIYRMSNLASGVPDRFSGSGSETDFTLKISRVEAEDVGIYHCGQLLENPYTFGAGTELELKRTVAAPSVFIFPPSDRKLKSGTASVVCLLNNFYPREAKVQWKVDNALQSGNSQESVTEQDSKDSTYSLSSTLTLSKADYEKHKVYACEVTHQGLSSPVTKSFNRGEC
light 2: EVQLLESGGGLVQPGGSLRLSCAASGFTFSTYAMNWVRQAPGKGLEWVSRIRSKYNNYATYYADSVKGRFTISRDDSKNTLYLQMNSLRAEDTAVYYCVRHGNFGNSYVSWFAYWGQGTLVTVSSASVAAPSVFIFPPSDEQLKSGTASVVCLLNNFYPREAKVQWKVDNALQSGNSQESVTEQDSKDSTYSLSSTLTLSKADYEKHKVYACEVTHQGLSSPVTKSFNRGEC
heavy 1: EVQLVESGGGLVQPGRSLKLSCAASGFSFSNYGMAWVRQAATKGLEWVASISTGGGNTYYRDSVKGRFIVSRDNAKNTQYLQMDSLRSEDTATYYCTRHDRGGLYWGQGVMVTVSSASTKGPSVFPLAPSSKSTSGGTAALGCLVEDYFPEPVTVSWNSGALTSGVHTFPAVLQSSGLYSLSSVVTVPSSSLGTQTYICNVNHKPSNTKVDEKVEPKSCDKTHTCPPCPAPEAAGGPSVFLFPPKPKDTLMISRTPEVTCVVVDVSHEDPEVKFNWYVDGVEVHNAKTKPREEQYNSTYRVVSVLTVLHQDWLNGKEYKCKVSNKALGAPIEKTISKAKGQPREPQVCTLPPSRDELTKNQVSLSCAVKGFYPSDIAVEWESNGQPENNYKTTPPVLDSDGSFFLVSKLTVDKSRWQQGNVFSCSVMHEALHNHYTQKSLSLSPGK
heavy 2: not shown
Human GPRC5D [1]
  EC50 of in vitro killing, AMO-1 cells: 6 pM
  EC50 of in vitro killing, EJM cells: 3 pM
  EC50 of in vitro killing, L363 cells: 3 pM
  EC50 of in vitro killing, MOLP-2 cells: 1 pM
  EC50 of in vitro killing, NCI-H929 cells: 4 pM
  EC50 of in vitro killing, OPM-2 cells: 1 pM
  EC50 of in vitro killing, RPMI cells: 6 pM
Human GPRC5D [2]
  EC50 of T cell cytotoxicity (LDH release) on AMO-1 cells: 3 pM
  EC50 of T cell cytotoxicity (LDH release) on L363 cells: 1 pM
  EC50 of T cell cytotoxicity (LDH release) on NCI-H929 cells: 1 pM
  EC50 of T cell cytotoxicity (LDH release) on RPMI-8226 cells: 2 pM

B3: BCMA-TCB (bispecific antibody, human IgG1, kappa, L234A L235A)
heavy 1: EVQLLESGGGLVQPGGSLRLSCAASGFTFSSYAMNWVRQAPGKGLEWVSAITASGGSTYYADSVKGRFTISRDNSKNTLYLQMNSLRAEDTAVYYCARYWPMSLWGQGTLVTVSSASTKGPSVFPLAPSSKSTSGGTAALGCLVEDYFPEPVTVSWNSGALTSGVHTFPAVLQSSGLYSLSSVVTVPSSSLGTQTYICNVNHKPSNTKVDEKVEPKSCDKTHTCPPCPAPEAAGGPSVFLFPPKPKDTLMISRTPEVTCVVVDVSHEDPEVKFNWYVDGVEVHNAKTKPREEQYNSTYRVVSVLTVLHQDWLNGKEYKCKVSNKALGAPIEKTISKAKGQPREPQVCTLPPSRDELTKNQVSLSCAVKGFYPSDIAVEWESNGQPENNYKTTPPVLDSDGSFFLVSKLTVDKSRWQQGNVFSCSVMHEALHNHYTQKSLSLSPGK
light 1: EIVLTQSPGTLSLSPGERATLSCRASQSVSAYYLAWYQQKPGQAPRLLMYDASIRATGIPDRFSGSGSGTDFTLTISRLEPEDFAVYYCQQYERWPLTFGQGTKVEIKRTVAAPSVFIFPPSDRKLKSGTASVVCLLNNFYPREAKVQWKVDNALQSGNSQESVTEQDSKDSTYSLSSTLTLSKADYEKHKVYACEVTHQGLSSPVTKSFNRGEC
heavy 2: not shown
light 2: EVQLLESGGGLVQPGGSLRLSCAASGFTFSTYAMNWVRQAPGKGLEWVSRIRSKYNNYATYYADSVKGRFTISRDDSKNTLYLQMNSLRAEDTAVYYCVRHGNFGNSYVSWFAYWGQGTLVTVSSASVAAPSVFIFPPSDEQLKSGTASVVCLLNNFYPREAKVQWKVDNALQSGNSQESVTEQDSKDSTYSLSSTLTLSKADYEKHKVYACEVTHQGLSSPVTKSFNRGEC
[3]
  EC50 of in vitro killing, AMO-1 cells: 518 pM
  EC50 of in vitro killing, EJM cells: 132 pM
  EC50 of in vitro killing, L363 cells: 127 pM
  EC50 of in vitro killing, MOLP-2 cells: 32 pM
  EC50 of in vitro killing, NCI-H929 cells: 311 pM
  EC50 of in vitro killing, OPM-2 cells: 33 pM
  EC50 of in vitro killing, RPMI cells: 11 pM

B4: 10B10 IgG (antibody, V domains shown)
VH: EVQLVESGGGLVQPGRSMKLSCAASGFTFTNFYMAWVRQAPTKALEWVASINTGGGYTYYRDSVKGRFTVSRDNTRSTLYLQMDSLRSEETATYYCARHLTYYGRYYYFDYWGQGVMVTVSS
VL: DIQLTQSPHSLSASLGETVSIECLASEGISNYLAWFHQKPGKSPQLLIYYASSLQDGVPSRFSGSGSGTQYSLKISNMQPEDEGVYYCQQGYKYPLTFGSGTKLEIK
notes: also called rat IgG 10B10
Human GPRC5A
  binding result: no binding (tested: 30 µg/ml top concentration)
Murine GPRC5D
  binding result: no binding (tested: 30 µg/ml top concentration)

B5: 07A04 IgG (antibody, V domains shown)
VH: QVTLKESGPGILQPSHTLSLTCSFSGFSLSTYGMGVNWIRQPSGKGLEWLASIWWNGNTYNNPSLKSRLTVSKDTSNNQAFLKVTSVDTADTATYYCVHTRGIIRGRGLFFDYWGQGVMVTVSS
VL: DVQMTQSPYNLAASPGESVSINCKASKSISKYLAWYQQKPGKANKLLIYDGSTLQSGIPSRFSGSGSGTDFTLTIRSLEPEDFGLYYCQQHNEYPLTFGSGTKLEIKR
notes: also called rat IgG 07A04
Human GPRC5A
  binding result: no binding (tested: 30 µg/ml top concentration)
Murine GPRC5D
  binding result: no binding (tested: 30 µg/ml top concentration)

B6: 5E11 IgG (antibody, V domains shown)
VH: ELQLEQSGGGLVQPGGSLTLSCAASGFTFSKYAMAWVRQAPTKGLEWVASISTGGVNTYYRDSVKARFTISRDNAKNTQYLQMDSLRSEDTATYYCATHTGDYFDYWGQGVMVTVSS
VL: DIVLTQSPALAVSPGQRATISCRASQSVSISGINLMNWYQQKPGQQPKLLIYHASILASGIPTRFSGSGSGTDFTLTIDPVQADDIATYYCQQTRESPLTFGSGTNLEIK
Human GPRC5A
  binding result: no binding (tested: 30 µg/ml top concentration)

B7: 5F11 IgG (antibody, V domains shown)
VH: EVQLVESGGGLVQPGRSLKLSCAASGFSFSNYGMAWVRQAATKGLEWVASISTGGGNTYYRDSVKGRFIVSRDNAKNTQYLQMDSLRSEDTATYYCTRHDRGGLYWGQGVMVTVSS
VL: DIVMTQAPLSVSVTPGESASISCRSSKSLLHSNGITYVYWYFQKPGKSPQVLIYRMSNLASGVPDRFSGSGSETDFTLKISRVEAEDVGIYHCGQLLENPYTFGAGTELELK
Human GPRC5A
  binding result: no binding (tested: 30 µg/ml top concentration)
